Measurements taken from patent publication US20040176568A1 (GENERAL HOSPITAL, published 2004).
Like-named read-outs stand apart in the source and are kept apart here. Each block holds one molecule with its values, some of them ahead of it. No end group written: not given here.

Experiments:
[1] = target: T1, human PTH-1 receptor (human, UniProt Q03431 27-593); test: cell-based or functional assay
T1 sequence (looked up): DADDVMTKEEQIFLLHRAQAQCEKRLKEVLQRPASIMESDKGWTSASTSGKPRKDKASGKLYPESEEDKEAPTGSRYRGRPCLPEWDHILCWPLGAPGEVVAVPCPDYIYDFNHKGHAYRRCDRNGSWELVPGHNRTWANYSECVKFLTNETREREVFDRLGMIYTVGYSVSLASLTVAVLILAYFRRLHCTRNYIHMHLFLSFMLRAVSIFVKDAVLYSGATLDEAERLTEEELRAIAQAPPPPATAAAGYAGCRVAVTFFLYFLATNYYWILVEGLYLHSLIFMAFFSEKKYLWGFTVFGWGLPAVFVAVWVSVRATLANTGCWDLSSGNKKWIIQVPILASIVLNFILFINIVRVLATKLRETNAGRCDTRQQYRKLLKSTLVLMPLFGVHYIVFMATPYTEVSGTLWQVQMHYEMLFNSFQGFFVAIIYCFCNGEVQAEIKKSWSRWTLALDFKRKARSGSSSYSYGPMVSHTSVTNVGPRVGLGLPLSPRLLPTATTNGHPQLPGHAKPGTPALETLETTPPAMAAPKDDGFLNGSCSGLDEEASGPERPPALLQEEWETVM

[2] = target: T1, human PTH-1 receptor; test: radioligand binding, HKRK B7 cells (human PTH-1 receptor)
[3] = target: T1, human PTH-1 receptor; test: cell-based or functional assay; remark: listed apart in the source
[4] = target: T1, human PTH-1 receptor; test: radioligand competition, HKRK B7 cells (human PTH-1 receptor)
From the text: (§1) Cell layers were washed three times before solubilization for determination of cell-associated radioactivity.

[5] = target: T2, rat PTH-1 receptor (rat, UniProt P25961 27-591); test: radioligand competition, EW5 cells (rat PTH-1 receptor)
T2 construct: whole, on cells; recombinant receptor on cells; also called rat PTH/PTHrP receptor
T2 sequence (looked up): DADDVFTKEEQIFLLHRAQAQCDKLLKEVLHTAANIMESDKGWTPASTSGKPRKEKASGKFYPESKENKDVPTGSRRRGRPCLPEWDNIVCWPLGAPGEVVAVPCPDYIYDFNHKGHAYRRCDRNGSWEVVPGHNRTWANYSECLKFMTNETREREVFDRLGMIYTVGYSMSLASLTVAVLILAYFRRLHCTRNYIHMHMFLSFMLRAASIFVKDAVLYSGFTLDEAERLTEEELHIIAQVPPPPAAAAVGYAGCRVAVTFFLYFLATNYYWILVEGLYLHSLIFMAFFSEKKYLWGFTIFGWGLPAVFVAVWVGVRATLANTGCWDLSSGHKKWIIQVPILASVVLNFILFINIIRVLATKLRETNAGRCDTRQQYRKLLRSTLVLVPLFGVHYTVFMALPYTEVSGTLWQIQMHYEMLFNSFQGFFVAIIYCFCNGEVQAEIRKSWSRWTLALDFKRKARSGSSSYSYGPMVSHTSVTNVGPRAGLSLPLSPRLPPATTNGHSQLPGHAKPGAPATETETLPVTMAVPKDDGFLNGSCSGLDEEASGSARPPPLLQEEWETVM
From the text: as §1

[6] = target: T1, human PTH-1 receptor; test: cell-based or functional assay; remark: listed apart in the source
[7] = target: T2, rat PTH-1 receptor; test: cell-based or functional assay
[8] = target: T2, rat PTH-1 receptor; test: radioligand competition, EW5 cells (rat) against HKRK B7 cells (human)
From the text: as §1

Molecule: ^125I-[Nle^8,21, Tyr^34]rat PTH-(1-34) (from UniProt P04089 32-65) (peptide)
cell-associated radioactivity, basal (no competitor) [2]: 25500 cpm/well

Molecule: desamino[Ala^1]hPTH-(1-34) (from UniProt P01270 32-65) (peptide)
PLC Activity (% Basal), 1000 nM peptide, transfected HEK-293 cells [1]: 106 % Basal

Molecule: desamino[Gly^1]hPTH-(1-34) (from UniProt P01270 32-65) (peptide)
PLC Activity (% Basal), 1000 nM peptide, transfected HEK-293 cells [1]: 108 % Basal

Molecule: [Tyr^0]hPTH-(1-34) (from UniProt P01270 32-65) (peptide)
PLC activity, percent of basal at 1000 nM peptide (percent of basal) [1]: 105

B1: hPTH-(1-28) (peptide)
peptide: SVSEIQLMHNLGKHLNSMERVEWLRKKL-NH2
EC50 of AC activation, HKRK B7 cells [3]: 1 nM
EC50 of PLC activation, HKRK B7 cells [3]: 6000 nM
fold loss of PLC potency against hPTH-(1-29) [3]: ~5 fold
IC50 [4]: 1000 nM
binding result [5]: binds
PLC Activity (% Basal), 1000 nM peptide, transfected HEK-293 cells [6]: 305 % Basal

B2: [Ala^1]hPTH-(1-28) (peptide)
peptide: AVSEIQLMHNLGKHLNSMERVEWLRKKL-NH2
EC50 for PLC activation, HKRK B7 cells [3]: 1000 nM

B3: [Arg^19]hPTH-(1-28) (peptide)
peptide: SVSEIQLMHNLGKHLNSMRRVEWLRKKL-NH2
notes: Analog of hPTH-(1-28)
EC50 of PLC activation, HKRK B7 cells [3]: 300 nM
IC50 [4]: 100 nM

B4: [Ala^1,Arg^19]hPTH-(1-28) (peptide)
peptide: AVSEIQLMHNLGKHLNSMRRVEWLRKKL-NH2
EC50 for PLC activation, HKRK B7 cells [3]: 200 nM
fold improvement of EC50 for PLC activation over [Ala^1]hPTH-(1-28) [3]: 5 fold

B5: [Gly^1]hPTH-(1-28) (peptide)
peptide: GVSEIQLMHNLGKHLNSMERVEWLRKKL-NH2
notes: Analog of hPTH-(1-28)
fold impairment of binding by the Gly^1 substitution (against hPTH-(1-28)) [4]: ~3 fold
fold enhancement of binding affinity by the Gly^1 substitution (against hPTH-(1-28)) [5]: 2 fold

B6: [Gly^1,Arg^19]hPTH-(1-28) (peptide)
peptide: GVSEIQLMHNLGKHLNSMRRVEWLRKKL-NH2
notes: Analog of hPTH-(1-28)
fold reduction of PLC potency, HKRK B7 cells [3]: ~100 fold
selectivity for activation of AC (vs. PLC), relative to hPTH-(1-34) [3]: > 40 fold
fold impairment of EC50 for AC relative to hPTH-(1-34), EW5 cells [7]: ~6 fold
selectivity for AC vs. PLC [7]: > 10 fold
fold impairment of binding by the Gly^1 substitution (against [Arg^19]hPTH-(1-28)) [4]: ~3 fold
fold improvement in binding affinity over [Gly^1]hPTH-(1-28) [4]: 5 fold
fold lower binding affinity than hPTH(1-34) [4]: 30 fold
fold reduction of binding relative to hPTH-(1-34) [4]: ~40 fold
fold enhancement of binding affinity by the Gly^1 substitution (against [Arg^19]hPTH-(1-28)) [5]: 2 fold
fold impairment of binding affinity relative to hPTH-(1-34) [5]: ~6 fold
fold lower binding affinity than hPTH-(1-34) [5]: 7 fold
fold greater binding affinity than for the human PTH-1 receptor [8]: 10 fold

B12: [Ala^1,Arg^19]hPTH-(1-27) (peptide)
peptide: AVSEIQLMHNLGKHLNSMRRVEWLRKK-NH2
fold improvement of EC50 for AC activation over hPTH-(1-27) [3]: 10 fold

Now from value to molecule:

PLC activation, percent of basal at 1000 nM peptide, HKRK B7 cells (percent of basal) [1]: 178
Molecule: hPTHrP(1-36) (from UniProt P12272 37-72) (peptide)

PLC activation, percent of basal at 1000 nM peptide, HKRK B7 cells (percent of basal) [1]: 101
Molecule: desamino-hPTHrP(1-36) (from UniProt P12272 37-72) (peptide)

EC50 of PLC activation (IP3 formation), HKRK B7 cells [3]: 1000 nM
B7: hPTH-(1-29) (peptide, UniProt P01270 32-60, looked up)
peptide: SVSEIQLMHNLGKHLNSMERVEWLRKKLQ-NH2

EC50 of AC activation, HKRK B7 cells [3]: 100 nM
fold loss of AC activity on removal of Leu^28 [3]: ~100 fold
PLC Activity (% Basal), 1000 nM peptide, transfected HEK-293 cells [6]: 95 % Basal
B8: hPTH-(1-27) (peptide)
peptide: SVSEIQLMHNLGKHLNSMERVEWLRKK-NH2

PLC Activity (% Basal), 1000 nM peptide, transfected HEK-293 cells [6]: 88 % Basal
B9: hPTH-(2-34) (peptide)
peptide: VSEIQLMHNLGKHLNSMERVEWLRKKLQDVHNY-NH2

fold loss of AC potency against hPTH-(1-27) [3]: 10 fold
B10: hPTH-(1-26) (peptide)
peptide: SVSEIQLMHNLGKHLNSMERVEWLRK-NH2

PLC Activity (% Basal), 1000 nM peptide, transfected HEK-293 cells [6]: 854 % Basal
B11: hPTH-(1-34) (peptide)
peptide: SVSEIQLMHNLGKHLNSMERVEWLRKKLQDVHNY-NH2
